Reference: patent US20180334496A1

Molecular target: Recombinant His-tagged FcγRIIb (UniProt P31994)
Assay: ELISA, antibody coated at 2 uM, His-tagged FcγRIIb titrated 1:3 from 2 uM, HRP anti-His; the concentration is that of the receptor

Sequence of Recombinant His-tagged FcγRIIb (P31994 46-217 limits assumed): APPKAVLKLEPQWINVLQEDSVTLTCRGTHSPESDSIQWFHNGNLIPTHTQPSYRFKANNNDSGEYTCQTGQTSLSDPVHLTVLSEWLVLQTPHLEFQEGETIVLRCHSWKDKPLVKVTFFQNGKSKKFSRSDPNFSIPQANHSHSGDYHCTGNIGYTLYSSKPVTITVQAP

- EC50 (read off the curve): 70 nM
Substance: Avastin (antibody)
